Patent US20220213201A1 (PHARMABCINE, published 2022)

B1: anti-TIE2 antibody 4E2 (IgG) (antibody, V domains shown)
VH: QVQLVQSGGGLIQPGGSLRLSCAASGFTFSDYAMHWVRQAPGKGLEWVALISFDGNNQYYADSVKGRFTISRDNSKNTIYLQMNSLRAEDTAVYYCTTDTMSGYDWEDAFDIWGQGTMITVSS
VL: DIQMTQSPSSLSASIGDRVTITCRASQSIGRWLAWYQQKPGKAPKLLIYAASSLQSGVPSRFSGSGSGTDFTLTISSLQPEDFATYYCQQSYSTPYTFGQGTKVEIKR
notes: also called 4E2 clone
B2: 3D6 monoclonal scFv phage (scFv)
chain: QVQLVESGGGLVQPGGSLRLSCIGSGFTFSRYNINWVRQAPGKGLEWVSSISSSGRFIHYAGSVKGRFTVSRDNTKNSVSLQMNSLRAEDTAVYYCARDSPTQGPYYYYGMDVWGQGTTITVSSSYELTQPPSESVAPGKTATITCGGNKIGSKSVHWYQQKPGQAPLMVIYYDSDRPSGIPERFSGSNSGNTATLTISRVEVGDEADYYCQVWDSSSDRPVFGGGTKLTVLG
B3: anti-TIE2 antibody 2F2 (IgG) (antibody, V domains shown)
VH: QVQLVESGGGLVQPGGSLRLSCAASGFTFSSYAMTWVRQAPGKGLEWVSRISGSGGSTNYADSVKGRFTISRDNSKNTLYLQMNSLRAEDTAVYYCARGGLHHGFDIWGQGTMVTVSS
VL: SYELTQPPSLSVAPGKTARITCDGDNIESKSVHWYQQKPGQAPVLVIYYDNDRPSGIPERFSGSNSGNTATLTISRVEAGDEADYYCQVWDTYTDQPVFGGGTKLTVLG
notes: also called 2F2 clone
B4: anti-TIE2 antibody 11F (IgG) (antibody, V domains shown)
VH: QVQLVESGGGVVQPGRSLRLSCSASGFSFSDHAMHWVRQAPGRGLEWVATVWPDGSNKYYVDSVNGRFSISRDNSKNTVSLQMNSLRAEDTAVYYCARDSGPISRGDLTYWGPGVLVTVSS
VL: NFMLTQPHSVSESPGKTVIISCTGSGGSIASNYVQWYQQRPGSAPTIVIYEDDQRPSGVPDRYSGSTDSSSNSASLTISGLRAEDEADYYCQSYDDTNVVFGGGTKLTVLG
notes: also called 11F antibody; No. 6
B5: 1A9 monoclonal scFv phage (scFv)
chain: QMQLVQSEAEVKKPGASVKVSCKASGYTFNSYDIHWVRQAPGQGLEWMGVVNPPGGTGSTVYAQKFEDRLTLTTDMSTSTAYMELSSLRSEDTAVYYCARDYNRAPPTLDVWGQGTTITVSSNFMLTQPASVSGSPGQSITISCTGSSSDVGGYNYVSWYQQHPGKAPQLIIYDVTKRPSGVSNRFSGSKSGNSASLTISGLQAEDEADYYCSSYSSSTFYVFGTGTKVTVLG
B6: anti-TIE2 antibody 1A9 (IgG) (antibody, V domains shown)
VH: QMQLVQSEAEVKKPGASVKVSCKASGYTFNSYDIHWVRQAPGQGLEWMGVVNPPGGTGSTVYAQKFEDRLTLTTDMSTSTAYMELSSLRSEDTAVYYCARDYNRAPPTLDVWGQGTTITVSS
VL: NFMLTQPASVSGSPGQSITISCTGSSSDVGGYNYVSWYQQHPGKAPQLIIYDVTKRPSGVSNRFSGSKSGNSASLTISGLQAEDEADYYCSSYSSSTFYVFGTGTKVTVLG
notes: also called 1A9 clone
B7: 4E2 monoclonal scFv phage (scFv)
chain: QVQLVQSGGGLIQPGGSLRLSCAASGFTFSDYAMHWVRQAPGKGLEWVALISFDGNNQYYADSVKGRFTISRDNSKNTIYLQMNSLRAEDTAVYYCTTDTMSGYDWEDAFDIWGQGTMITVSSDIQMTQSPSSLSASIGDRVTITCRASQSIGRWLAWYQQKPGKAPKLLIYAASSLQSGVPSRFSGSGSGTDFTLTISSLQPEDFATYYCQQSYSTPYTFGQGTKVEIKR
B8: 2F2 monoclonal scFv phage (scFv)
chain: QVQLVESGGGLVQPGGSLRLSCAASGFTFSSYAMTWVRQAPGKGLEWVSRISGSGGSTNYADSVKGRFTISRDNSKNTLYLQMNSLRAEDTAVYYCARGGLHHGFDIWGQGTMVTVSSSYELTQPPSLSVAPGKTARITCDGDNIESKSVHWYQQKPGQAPVLVIYYDNDRPSGIPERFSGSNSGNTATLTISRVEAGDEADYYCQVWDTYTDQPVFGGGTKLTVLG
B9: anti-TIE2 antibody 3D6 (IgG) (antibody, V domains shown)
VH: QVQLVESGGGLVQPGGSLRLSCIGSGFTFSRYNINWVRQAPGKGLEWVSSISSSGRFIHYAGSVKGRFTVSRDNTKNSVSLQMNSLRAEDTAVYYCARDSPTQGPYYYYGMDVWGQGTTITVSS
VL: SYELTQPPSESVAPGKTATITCGGNKIGSKSVHWYQQKPGQAPLMVIYYDSDRPSGIPERFSGSNSGNTATLTISRVEVGDEADYYCQVWDSSSDRPVFGGGTKLTVLG
notes: also called 3D6 clone

Legend:
[1] = biological target: T1, mouse Tie2-his (Sino Biological, 51087-M08H) (mouse, UniProt Q02858 23-743); test: Octet (BLI), antibody fixed on the biosensor, mTie2-His in solution
T1 construct: Bought protein; also called mTIE2-his; mTie2-his; not shown: his tag
Experimental: (§1) The anti-TIE2 antibody was fixed at the biosensor and tested according to the manufacturer's manual. The binding kinetics at each concentration of human TIE2 and mouse Tie2 were measured to calculate the binding rate constant (kₒₙ), dissociation rate constant (koff), and binding constant (KD) (Table 4).

[2] = biological target: T2, human TIE2-his (Sino Biological, 10700-H08H) (human, UniProt Q02763 23-745); test: Octet (BLI), antibody fixed on the biosensor, hTIE2-his in solution
T2 construct: Bought protein; also called hTIE2-his; hTIE2; not shown: his tag
Experimental: as §1

[3] = biological target: T2, human TIE2-his (Sino Biological, …); test: ELISA, scFv phage on coated hTIE2-his, HRP anti-M13 detection
[4] = biological target: T1, mouse Tie2-his (Sino Biological, …); test: ELISA, scFv phage on mouse TIE2 antigen, HRP anti-M13 detection
[5] = biological target: T3, mouse TIE2 overexpressed on CHO-K1 cells (mouse, UniProt Q02858 23-1122); test: flow cytometry on mTIE2/CHO-K1 cells, PE anti-human IgG-Fc secondary
T3 construct: whole, on cells; also called mTIE2/CHO-K1
Experimental: (§2) In order to determine the binding to cell-expressing TIE2, the binding to the self-established human/mouse TIE2 overexpressing CHO-K1 cell lines (hTIE2/CHO-K1, mTIE2/CHO-K1) was measured using flow cytometry. Each cell line was maintained and cultured, hTIE2 CHO-K1 was washed with PBS, 5 mM EDTA was added thereto to obtain a cell suspension, and each cell was recovered through centrifugation. A cell suspension of 5×10⁶ cells/mL was prepared using FACS-dedicated buffer (PBS containing 2% FBS, 0.05% sodium azide), and 100 μL of the cell suspension was dispensed into each tube. 100 μL of 2 μg/mL clones was added to each test tube and allowed to stand at 4° C. for 30 minutes to induce cell binding. The cells were washed with 2 mL of FACS buffer, 100 μL of a secondary antibody dilution (1/500, PE-conjugated anti-human IgG-Fc polyclonal antibody fragment, *A80-248PE, Bethyl Laboratories Inc. US) was added thereto, and the resulting mixture was allowed to stand at 4° C. for 20 minutes to perform fluorescent labeling. The cells were washed with 2 mL of FACS buffer and then suspended in 200 μL of FACS buffer. […]

[6] = biological target: T1, mouse Tie2-his (Sino Biological, …); test: ELISA, purified IgG on coated mTIE2-his (1 µg/mL), HRP anti-human detection
Experimental: (§3) Whether or not the binding of TIE2 to the ScFv phage clone was maintained in IgG was determined through ELISA. 1 μg/ml of Ag (hTIE2-his: Sino Biological, 10700-H08H; mTIE2-his: Sino Biological, 51087-M08H) was plated at 100 μl/well onto a 96-well plate and incubated at 4° C. overnight. The next day, the cells grown the day before were centrifuged at 3,000 rpm for 10 minutes and stored at 4° C. The plated Ag was washed 3 times with 0.1% TBST and 200 μl of 2% BSA blocking buffer was added thereto, followed by incubation at 25° C. for 2 hours. After blocking was completed, the resulting product was washed 3 times with 0.1% TBST. […] After phage binding, the resulting product was washed 3 times with 0.1% TBST and 100 μl of HRP-conjugated goat anti-human Ab (1:3000, Sino, 11973-MM05) was added thereto, followed by incubation at 25° C. for 1 hour. After reaction, the resulting product was washed 3 times with 0.1% TBST, 100 μl of TMB (BD TMB substrate reagent set * 555214) was added thereto, color was developed for 3 to 5 minutes, 50 μl of a stop solution was added thereto, and then an assay was performed using an ELISA reader.

[7] = biological target: T4, human TIE2 overexpressed on CHO-K1 cells (human, UniProt Q02763 23-1124); test: flow cytometry on hTIE2/CHO-K1 cells, 2 µg/mL clone, PE anti-human IgG-Fc secondary
T4 construct: whole, on cells; also called hTIE2/CHO-K1; hTIE2 CHO-K1
Experimental: as §2

[8] = biological target: T2, human TIE2-his (Sino Biological, …); test: ELISA, purified IgG on coated hTIE2-his (1 µg/mL), HRP anti-human detection
Experimental: as §3

T2 sequence (Q02763 23-745 limits assumed): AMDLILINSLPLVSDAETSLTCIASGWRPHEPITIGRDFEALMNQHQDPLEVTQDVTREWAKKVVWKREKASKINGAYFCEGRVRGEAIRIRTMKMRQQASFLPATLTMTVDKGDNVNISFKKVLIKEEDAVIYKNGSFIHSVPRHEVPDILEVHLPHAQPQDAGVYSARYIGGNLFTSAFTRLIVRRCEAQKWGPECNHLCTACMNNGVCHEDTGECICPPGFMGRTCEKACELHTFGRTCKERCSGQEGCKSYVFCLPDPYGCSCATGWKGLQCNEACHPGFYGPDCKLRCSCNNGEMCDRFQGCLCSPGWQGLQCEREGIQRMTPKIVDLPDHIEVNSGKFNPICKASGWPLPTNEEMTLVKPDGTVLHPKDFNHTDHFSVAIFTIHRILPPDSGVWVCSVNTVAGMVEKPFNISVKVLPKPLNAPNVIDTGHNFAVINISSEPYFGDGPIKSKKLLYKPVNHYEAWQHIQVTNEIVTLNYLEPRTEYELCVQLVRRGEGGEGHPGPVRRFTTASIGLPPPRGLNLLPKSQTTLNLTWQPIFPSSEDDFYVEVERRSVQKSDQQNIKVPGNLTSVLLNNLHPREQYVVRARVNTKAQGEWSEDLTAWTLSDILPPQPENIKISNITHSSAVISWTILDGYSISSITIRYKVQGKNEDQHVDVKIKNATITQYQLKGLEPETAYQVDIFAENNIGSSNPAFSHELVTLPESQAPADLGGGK
T1 sequence (Q02858 23-743 limits assumed, stated change not applied): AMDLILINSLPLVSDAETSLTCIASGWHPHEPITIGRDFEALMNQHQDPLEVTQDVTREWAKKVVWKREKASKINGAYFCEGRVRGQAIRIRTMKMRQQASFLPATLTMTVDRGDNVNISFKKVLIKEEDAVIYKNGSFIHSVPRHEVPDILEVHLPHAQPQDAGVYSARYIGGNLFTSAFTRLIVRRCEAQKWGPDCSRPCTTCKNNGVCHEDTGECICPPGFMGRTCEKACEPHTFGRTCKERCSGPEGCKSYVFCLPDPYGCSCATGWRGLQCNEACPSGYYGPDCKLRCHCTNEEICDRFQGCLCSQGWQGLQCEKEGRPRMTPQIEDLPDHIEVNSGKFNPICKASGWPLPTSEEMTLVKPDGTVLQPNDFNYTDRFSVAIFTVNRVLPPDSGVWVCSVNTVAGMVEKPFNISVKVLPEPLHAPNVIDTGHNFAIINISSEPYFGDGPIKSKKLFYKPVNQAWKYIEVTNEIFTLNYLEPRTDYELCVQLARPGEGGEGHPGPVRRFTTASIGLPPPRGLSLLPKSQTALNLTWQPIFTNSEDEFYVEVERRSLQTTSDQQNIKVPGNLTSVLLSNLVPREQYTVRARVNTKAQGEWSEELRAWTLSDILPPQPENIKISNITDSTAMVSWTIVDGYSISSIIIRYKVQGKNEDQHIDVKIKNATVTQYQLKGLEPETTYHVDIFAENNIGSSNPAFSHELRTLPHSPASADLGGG
T4 sequence (Q02763 23-1124): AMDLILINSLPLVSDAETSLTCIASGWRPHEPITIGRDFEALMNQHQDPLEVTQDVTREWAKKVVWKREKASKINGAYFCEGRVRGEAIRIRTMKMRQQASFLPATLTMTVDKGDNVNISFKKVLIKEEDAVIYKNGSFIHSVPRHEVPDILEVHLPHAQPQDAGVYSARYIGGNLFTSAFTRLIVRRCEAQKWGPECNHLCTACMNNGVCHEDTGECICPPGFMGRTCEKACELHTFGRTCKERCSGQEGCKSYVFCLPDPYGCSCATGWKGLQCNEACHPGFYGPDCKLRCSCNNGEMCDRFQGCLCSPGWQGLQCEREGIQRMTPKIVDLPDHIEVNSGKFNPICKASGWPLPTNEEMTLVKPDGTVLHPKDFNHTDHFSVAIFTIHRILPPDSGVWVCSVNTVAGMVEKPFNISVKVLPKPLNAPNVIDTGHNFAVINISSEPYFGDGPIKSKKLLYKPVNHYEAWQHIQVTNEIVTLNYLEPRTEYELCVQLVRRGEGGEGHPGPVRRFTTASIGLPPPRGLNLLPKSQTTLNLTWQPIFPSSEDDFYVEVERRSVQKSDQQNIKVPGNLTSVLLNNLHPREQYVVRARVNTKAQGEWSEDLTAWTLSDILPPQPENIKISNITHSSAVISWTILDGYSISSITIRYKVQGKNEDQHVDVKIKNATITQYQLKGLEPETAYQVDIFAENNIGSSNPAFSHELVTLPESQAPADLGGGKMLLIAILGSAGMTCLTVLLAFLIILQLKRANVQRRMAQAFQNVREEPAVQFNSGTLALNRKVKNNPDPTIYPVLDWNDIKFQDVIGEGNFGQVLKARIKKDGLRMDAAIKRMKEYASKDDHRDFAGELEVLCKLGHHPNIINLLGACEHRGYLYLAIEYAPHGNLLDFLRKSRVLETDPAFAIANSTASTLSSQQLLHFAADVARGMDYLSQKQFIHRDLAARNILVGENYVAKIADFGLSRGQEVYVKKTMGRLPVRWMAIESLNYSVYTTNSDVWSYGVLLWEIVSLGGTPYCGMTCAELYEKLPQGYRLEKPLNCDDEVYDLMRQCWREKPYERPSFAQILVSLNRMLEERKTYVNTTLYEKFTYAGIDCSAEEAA
T3 sequence (Q02858 23-1122): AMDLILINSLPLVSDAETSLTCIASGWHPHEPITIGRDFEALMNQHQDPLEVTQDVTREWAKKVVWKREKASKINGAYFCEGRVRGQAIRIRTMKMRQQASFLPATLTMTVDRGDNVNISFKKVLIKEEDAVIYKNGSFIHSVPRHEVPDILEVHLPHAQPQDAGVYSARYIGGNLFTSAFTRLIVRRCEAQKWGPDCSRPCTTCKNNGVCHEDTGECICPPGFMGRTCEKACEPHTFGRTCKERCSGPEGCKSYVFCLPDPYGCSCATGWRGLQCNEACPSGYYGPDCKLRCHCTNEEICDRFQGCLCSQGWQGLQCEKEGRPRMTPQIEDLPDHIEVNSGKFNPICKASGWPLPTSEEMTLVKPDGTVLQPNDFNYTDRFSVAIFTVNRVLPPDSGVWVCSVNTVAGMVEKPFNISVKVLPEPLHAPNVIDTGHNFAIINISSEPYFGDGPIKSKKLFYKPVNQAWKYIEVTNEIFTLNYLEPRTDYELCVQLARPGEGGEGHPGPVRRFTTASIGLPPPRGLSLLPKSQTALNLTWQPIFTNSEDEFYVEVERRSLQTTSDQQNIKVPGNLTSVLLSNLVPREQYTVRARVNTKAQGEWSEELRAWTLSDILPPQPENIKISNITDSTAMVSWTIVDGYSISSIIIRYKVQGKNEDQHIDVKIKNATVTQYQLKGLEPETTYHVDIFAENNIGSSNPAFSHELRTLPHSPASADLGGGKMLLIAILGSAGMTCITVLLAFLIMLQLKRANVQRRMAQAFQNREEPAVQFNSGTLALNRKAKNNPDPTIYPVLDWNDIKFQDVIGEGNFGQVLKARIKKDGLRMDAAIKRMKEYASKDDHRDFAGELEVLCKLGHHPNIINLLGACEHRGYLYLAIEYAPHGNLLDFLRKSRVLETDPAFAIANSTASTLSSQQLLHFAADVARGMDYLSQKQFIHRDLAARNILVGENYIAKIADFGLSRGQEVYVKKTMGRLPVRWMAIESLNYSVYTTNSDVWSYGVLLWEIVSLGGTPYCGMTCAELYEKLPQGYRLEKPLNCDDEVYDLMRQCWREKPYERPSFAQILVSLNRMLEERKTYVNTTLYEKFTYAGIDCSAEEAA

| Binder | Kd [2] [nM] | koff [2] [s⁻¹] | kon [2] [M⁻¹ s⁻¹] | Human ELISA [3] | Mouse ELISA [4] | binding result [6] | further results |
| --- | --- | --- | --- | --- | --- | --- | --- |
| B1 | < 0.001 | < 1e-07 | 106000 | – | – | – | Kd [1]: 13.8 nM; koff [1]: 0.00291 s⁻¹; kon [1]: 212000 M⁻¹ s⁻¹ |
| B2 | – | – | – | 2.1 | 0.1 | – | – |
| B3 | 0.794 | 0.000116 | 146000 | – | – | no binding | binding result [5]: no binding |
| B4 | 2.76 | 0.000152 | 55300 | – | – | – | – |
| B5 | – | – | – | 2.4 | 0 | – | – |
| B6 | – | – | – | – | – | no binding | binding result [7]: binds; binding result [8]: binds |
| B7 | – | – | – | 1.2 | 0.4 | – | – |
| B8 | – | – | – | 1.9 | 0.1 | – | – |
| B9 | – | – | – | – | – | no binding | binding result [5]: no binding; binding result [7]: binds; binding result [8]: binds |
